Laboratory results taken from patent US20210163606A1.
Changes are numbered by the printed parent chain.

B1: aNRP2-28v2/4 (antibody, V domains shown)
VH: QSVKESEGGLFKPTDTLTLTCTVSGFSLSTYSISWVRQAPGNGLEWIGIIGDAGGIIYATWAKSRSTITRSTALNTVTLKMTGLTAADTATYFCARDGTAFDIWGPGTLVTVSS
VL: AYDMTQTPASVEVVVGGTVTIKCQASQSIYSKLGWYQQKPGQPPKLLIYRASTLASGVSSRFKGSGSGTEYTLTISGVQCDDAATYYCQQDYSYINVDNIFGGGTEVVVK
B2: aNRP2-11v7 (antibody, V domains shown)
VH: QVQLVQSGAEVKKPGASVKVSCKASGYTFTSFGISWVRQAPGQGLEWIGEIYPRSGNTYYNENFKGRATMTADKSTSTAYMELRSLRSDDTAVYYCARSSGYYGSTPFPYWGQGTLVTVSS
VL: DIQMTQSPSSLSASVGDRVTITCRASQDISNYLNWYQQKPGKAVKLLIYYTSRLHSGVPSRFSGSGSGTDYTFTISSLQPEDIATYYCQQGNTLPWTFGGGTKVEIK
B3: aNRP2-2v4 (antibody, V domains shown)
VH: QVQLVQSGAEVKKPGASVKVSCKASGYTFTSYWMHWVRQAPGQGLEWMGVIHPNSASTFYNERFKTRATMTVDRSSSTAYMELSSLRSEDTAVYYCSRPGTVRRSDYWGQGTTVTVSS
VL: DVVMTQSPLSLPVTLGQPASISCRSSQNIVHSTGNTYLEWYQQRPGQSPRLLIYKVSNRFSGVPDRFSGSGSGTDFTLKISRVEAEDVGVYYCFQGSHVPWTFGGGTKVEIK
B4: aNRP2-1v3 (antibody, V domains shown)
VH: QVQLVQSGAEVKKPGASVKVSCKASGYTFTSYWMHWVRQAPGQGLEWMGAIYPGNSDTSYNQQFKGRVTMTRDTSTSTVYMELSSLRSEDTAVYYCARRGGGYFDYWGQGTLVTVSS
VL: DIQLTQSPSFLSASVGDRVTITCKASQNVGAAVAWYQQKPGKAPKLLIYSASNRYTGVPSRFSGSGSGTEFTLTISSLQPEDFATYYCQQYSSYPLLTFGGGTKVEIK
B5: aNRP2-14v10 (antibody, V domains shown)
VH: QLQLVESGGGVVQPGRSLRLSCTVSGFSLTSYGVHWVRQAPGKGLEWVGLIWSGGSTDYSPAFISRFTISEDNSKSTVYLQMNSLRAEDTAVYFCARNSYSSGYYAMDYWGQGTTVTVSS
VL: B4 VL with A31T, Y91R, S93R, L96P, L97Y
B6: aNRP2-14v9 (antibody, V domains shown)
VH: B5 VH
VL: B4 VL with A31H, S93R, L96P, L97Y
B7: aNRP2-10v5 (antibody, V domains shown)
VH: EVQLVQSGAEVKKPGATVKISCKVSGFNIKDYYIHWVQQAPGKGLEWMGRIDVEDDETKYAPKFQGRVTITADTSTDTAYMELSSLRSEDTAVYYCATPIYGSREAWFAYWGQGTLVTVSS
VL: DIQMTQSPSSLSASVGDRVTITCTASSSVSSSYLHWYQQKPGKAPKLLIYRTSNLASGVPSRFSGSGSGTDFTLTISSLQPEDFATYYCHQYYRSPPTFGGGTKVEIK
B8: aNRP2-10v13 (antibody, V domains shown)
VH: B7 VH with I34V, E54H, S103A
VL: B7 VL
B9: aNRP2-10v10 (antibody, V domains shown)
VH: B7 VH with I34V, S103A
VL: B7 VL

Molecular target: Human NRP2 (aa23-855) with C-terminal Avi-, Myc- and His-tags (Human) (UniProt O60462)
Assay: SPR as described for Table E1 (human NRP2 antigen); the antigen for this mouse-IgG1 surrogate is not said separately

Kd [nM] | Binder
0.0599 | B1

Molecular target: Human NRP2 (aa23-855) with C-terminal Avi-, Myc- and His-tags (Human) (UniProt O60462)
Assay: SPR (ProteOn XPR36), antibody captured on anti-human Fab-kappa, NRP2 as analyte, 1:1 Langmuir fit

Kd [nM] | Binder
0.95 | B2
2.7 | B3
17 | B4
0.17 | B5
0.15 | B6
0.2 | B7
0.358 | B8
0.029 | B9
